# Reference: patent US20090099029
# Where a chain is given by its changes, count along the chain named.
# T1: Bovine, dephosphorylated, Myelin Basic Protein (MBP), P02687
# T1 chain: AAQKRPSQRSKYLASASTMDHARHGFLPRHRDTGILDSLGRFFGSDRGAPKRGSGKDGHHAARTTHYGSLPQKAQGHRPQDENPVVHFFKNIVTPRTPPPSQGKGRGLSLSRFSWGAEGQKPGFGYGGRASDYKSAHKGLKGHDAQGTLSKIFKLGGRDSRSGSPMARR
# B1: MAP2K6(MKK6) (protein)
# chain: MSQSKGKKRNPGLKIPKEAFEQPQTSSTPPRDLDSKACISIGNQNFEVKADDLEPIMELGRGAYGVVEKMRHVPSGQIMAVKRIRATVNSQEQKRLLMDLDISMRTVDCPFTVTFYGALFREGDVWICMELMDTSLDKFYKQVIDKGQTIPEDILGKIAVSIVKALEHLHSKLSVIHRDVKPSNVLINALGQVKMCDFGISGYLVDSVAKTIDAGCKPYMAPERINPELNQKGYSVKSDIWSLGITMIELAILRFPYDSWGTPFQQLKQVVEEPSPQLPADKFSAEFVDFTSQCLKKNSKERPTYPELMQHPFFTLHESKGTDVASFVKLILGD
# B2: MAP2K6, mutant (protein)
# chain: B1 chain with S207E, T211E
# B3: MAP2K2(MEK2) (protein)
# chain: MLARRKPVLPALTINPTIAEGPSPTSEGASEANLVDLQKKLEELELDEQQKKRLEAFLTQKAKVGELKDDDFERISELGAGNGGVVTKVQHRPSGLIMARKLIHLEIKPAIRNQIIRELQVLHECNSPYIVGFYGAFYSDGEISICMEHMDGGSLDQVLKEAKRIPEEILGKVSIAVLRGLAYLREKHQIMHRDVKPSNILVNSRGEIKLCDFGVSGQLIDSMANSFVGTRSYMAPERLQGTHYSVQSDIWSMGLSLVELAVGRYPIPPPDAKELEAIFGRPVVDGEEGEPHSISPRPRPPGRPVSGHGMDSRPAMAIFELLDYIVNEPPPKLPNGVFTPDFQEFVNKCLIKNPAERADLKMLTNHTFIKRSEVEEVDFAGWLCKTLRLNQPGTPTRTAV
# B4: MAP2K3(MEK3) (protein)
# chain: MSKPPAPNPTPPRNLDSRTFITIGDRNFEVEADDLVTISELGRGAYGVVEKVRHAQSGTIMAVKRIRATVNSQEQKRLLMDLDINMRTVDCFYTVTFYGALFREGDVWICMELMDTSLDKFYRKVLDKNMTIPEDILGEIAVSIVRALEHLHSKLSVIHRDVKPSNVLINKEGHVKMCDFGISGYLVDSVAKTMDAGCKPYMAPERINPELNQKGYNVKSDVWSLGITMIEMAILRFPYESWGTPFQQLKQVVEEPSPQLPADRFSPEFVDFTAQCLRKNPAERMSYLELMEHPFFTLHKTKKTDIAAFVKEILGEDS
# B5: MAP3K11(MLK3) (protein)
# chain: MEPLKSLFLKSPLGSWNGSGSGGGGGGGGGRPEGSPKAAGYANPVWTALFDYEPSGQDELALRKGDRVEVLSRDAAISGDEGWWAGQVGGQVGIFPSNYVSRGGGPPPCEVASFQELRLEEVIGIGGFGKVYRGSWRGELVAVKAARQDPDEDISVTAESVRQEARLFAMLAHPNIIALKAVCLEEPNLCLVMEYAAGGPLSRALAGRRVPPHVLVNWAVQIARGMHYLHCEALVPVIHRDLKSNNILLLQPIESDDMEHKTLKITDFGLAREWHKTTQMSAAGTYAWMAPEVIKASTFSKGSDVWSFGVLLWELLTGEVPYRGIDCLAVAYGVAVNKLTLPIPSTCPEPFAQLMADCWAQDPHRRPDFASILQQLEALEAQVLREMPRDSFHSMQEGWKREIQGLFDELRAKEKELLSREEELTRAAREQRSQAEQLRRREHLLAQWELEVFERELTLLLQQVDRERPHVRRRRGTFKRSKLRARDGGERISMPLDFKHRITVQASPGLDRRRNVFEVGPGDSPTFPRFRAIQLEPAEPGQAWGRQSPRRLEDSSNGERRACWAWGPSSPKPGEAQNGRRRSRMDEATWYLDSDDSSPLGSPSTPPALNGNPPRPSLEPEEPKRPVPAERGSSSGTPKLIQRALLRGTALLASLGLGRDLQPPGGPGRERGESPTTPPTPTPAPCPTEPPPSPLICFSLKTPDSPPTPAPLLLDLGIPVGQRSAKSPRREEEPRGGTVSPPPGTSRSAPGTPGTPRSPPLGLISRPRPSPLRSRIDPWSFVSAGPRPSPLPSPQPAPRRAPWTLFPDSDPFWDSPPANPFQGGPQDCRAQTKDMGAQAPWVPEAGP
# Molecular target: T1, Bovine, dephosphorylated, Myelin Basic …
row,Protein,MBP Kinase Activity
1,B1,Weak
2,B2,Negative
3,B3,Negative
4,B4,Negative
5,B5,Negative
